The labels stand for the following.
B1: CD2BP2256-332 (other)
chain: AEEELETPTPTQRGEAESRGDGLVDVMWEYKWENTGDAELYGPFTSAQMQTWVSEGYFPDGVYCRKLDPPGGQFYNS
notes: Yeast two-hybrid prey; vector fusion part not described; also called nine-residue truncation
B2: CD2BP2256-341Δ297-313 (other)
chain: AEEELETPTPTQRGEAESRGDGLVDVMWEYKWENTGDAELYPDGVYCRKLDPPGGQFYNSKRIDFDLYT
notes: Yeast two-hybrid prey; vector fusion part not described; also called deletion clone lacking those 17 residues
B3: CD2BP2256-341 (yeast two-hybrid clone) (other)
chain: AEEELETPTPTQRGEAESRGDGLVDVMWEYKWENTGDAELYGPFTSAQMQTWVSEGYFPDGVYCRKLDPPGGQFYNSKRIDFDLYT
notes: Yeast two-hybrid prey in pJG4-5; vector fusion part not described; also called shortest functional clone
B4: CD2BP2 F313A (other)
chain: B3 chain with F58A
notes: Yeast two-hybrid prey
B5: CD2BP2 G311A (other)
chain: B3 chain with G56A
notes: Yeast two-hybrid prey
B6: CD2BP2 W307A (other)
chain: B3 chain with W52A
notes: Yeast two-hybrid prey
B7: CD2BP2 Y312A (other)
chain: B3 chain with Y57A
notes: Yeast two-hybrid prey
B8: CD2221-271 (receptor, human, UniProt P06729 245-295, looked up)
chain: NDEELETRAHRVATEERGRKPHQIPASTPQNPATSQHPPPPPGHRSQAPSH
notes: range 221-271; CD2 cytoplasmic tail truncation mutant for yeast two-hybrid analysis; vector fusion part not described
B9: FLAG-CD2BP2 (other)
chain: DYKDDDDKMPKRKVTFQGVGDEEDEDEIIVPKKKLVDPVAGSGGPGSRFKGKHSLDSDEEEDDDDGGSSKYDILASEDVEGQEAATLPSEGGGRITPFNLQEEMEEGHFDADGNYFLNRDAQIRDSWLDNIDWVKIRERPPGQRQASDSEEEDSLGQTSMSAQALLEGLLELLLPRETVAGALRRLGARGGGKGRKGPGQPSSPQRLDRLSGLADQMVARGNLGVYQETRERLAMRLKGLGCQTLGPHNPTPPPSLDMFAEELAEEELETPTPTQRGEAESRGDGLVDVMWEYKWENTGDAELYGPFTSAQMQTWVSEGYFPDGVYCRKLDPPGGQFYNSKRIDFDLYT
notes: Expressed in COS7 (pcDNA1.1) and Jurkat J77 (pcDNA3.1) cells and tested from cell lysates; also called full length FLAG-CD2BP2 construct
B10: CD2 cytoplasmic region (CD2221-327) (receptor, human, UniProt P06729 245-351, looked up)
chain: NDEELETRAHRVATEERGRKPHQIPASTPQNPATSQHPPPPPGHRSQAPSHRPPPPGHRVQHQPQKRPPAPSGTQVHQQKGPPLPRPRVQPKPPHGAAENSLSPSSN
notes: range 221-327; Yeast two-hybrid bait expressed from vector pEG202; also called CD2 cytoplasmic tail; human CD2 cytoplasmic segment amino acids 221-327

Test [1] deals with B10. As to the kind of experiment: yeast two-hybrid. From the text:
(§1) The yeast hybrid system interaction trap was used as described (Finley and Brent, Interaction Trap Cloning with Yeast (Oxford Univ. Press), NY (1995)). In brief, as bait, a human CD2 cDNA encoding the cytoplasmic segment amino acids 221-327 was transferred into the pEG202 vector. cDNAs from an activated human T cell cDNA library, CD2 binding protein 2 (CD2BP2), or mutant cDNA variants of CD2BP2 were introduced into the pJG4-5 vector between EcoRI and Xho1 restriction sites. Mutations were created by a previously described method (Higuchi et al., Nucleic Acids Res. 16:7351-7367 (1988)), and were confirmed by DNA sequencing. Both of the yeast shuttle vectors were introduced into the yeast strain EGY48, were plated onto selection plates containing glucose, and were incubated at 30° C. After 48 hours greater than 100 colonies were mixed, were transferred onto a plate containing galactose/raffinose and 5-bromo-4-chloro-3-indolyl-D-galactoside, and were incubated for 48 hours at 30° C. followed by 5 days at 8° C. The strength of the interaction was scored based on the time point when the blue color appeared in comparison with a negative control: ++++, <6 hours; +++, 12 hours: ++, <24 hours; +, <48 hours; ±, <72 hours; and −, >72 hours. CD2 mutations were generated and analyzed in a similar manner.

Test [2] has as its target T1, CD2 binding protein 2 (CD2BP2) (human, UniProt O95400 1-341, limits assumed).
T1 construct: CD2BP2 as used in the yeast two-hybrid tests against CD2 derivatives (vector pJG4-5)
T1 sequence: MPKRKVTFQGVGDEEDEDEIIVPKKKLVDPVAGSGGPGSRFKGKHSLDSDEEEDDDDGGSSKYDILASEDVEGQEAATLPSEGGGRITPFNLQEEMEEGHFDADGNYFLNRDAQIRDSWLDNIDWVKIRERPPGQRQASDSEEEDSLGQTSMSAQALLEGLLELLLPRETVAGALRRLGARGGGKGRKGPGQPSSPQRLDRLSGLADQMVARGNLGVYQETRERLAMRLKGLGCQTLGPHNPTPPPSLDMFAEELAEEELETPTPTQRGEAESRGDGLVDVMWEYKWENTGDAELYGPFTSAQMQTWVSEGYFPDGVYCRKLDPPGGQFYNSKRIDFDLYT
The test can be described thus: yeast two-hybrid.
Source text: as §1

Test [3] deals with T2, human CD4 (human, UniProt P01730 26-458).
T2 construct: whole, on cells; Control in the COS7 co-immunoprecipitation; tested in cell lysate
As to the kind of experiment: co-immunoprecipitation from cotransfected COS7 cells, anti-FLAG Western blot. Here is the method:
COS7 cells were transfected with FLAG-CD2BP2 cDNA (lane 1), with FLAG-CD2BP2 and a human CD2 cDNA (lanes 2 and 3), or with FLAG-CD2BP2 and a human CD4 cDNA (lanes 4 and 5), then were lysed and immunoprecipitated with the anti-FLAG mAb M2 (lanes 3 and 5), with anti-CD2 mAb (anti-T11₁)(lanes 1 and 2), or with anti-CD4 mAb (19Thy5D7) (lane 4). Subsequently, the amount of FLAG-CD2BP2 in the immunoprecipitates was assayed by anti-FLAG mAb M2 Western blotting.
To determine whether CD2BP2 associates specifically with CD2, COS7 cells were cotransfected with FLAG-CD2BP2 and CD2 cDNA, or, as a control, CD4 cDNA. Subsequently, the CD2 protein was immunoprecipitated with anti-CD2 mAb and association with CD2BP2 examined by Western blotting with anti-FLAG mAb. […] The amount of CD2BP2 associated with CD2, however, is only a fraction of the CD2BP2 protein expressed in the COS7 cells.
As the vectors for transfection, pcDNA1.1 and pcDNA3.1 (Invitrogen) were used with COS7 and with Jurkat cells, respectively. For expression of CD2 and CD4 in COS7 cells, a pCDM8 plasmid containing each was used (Sakiharna et al, Proc. Natl. Acad. Sci. USA 92:6444-6448 (1995); Li et al., J. Mol. Biol. 263:209-226 (1996)). […]
On the technique in general: A western blot detects proteins with antibodies after separation by electrophoresis.

Test [4] addresses T3, CD2BP2129-254 (human, UniProt O95400 129-254).
T3 construct: Yeast two-hybrid prey; vector fusion part not described
T3 sequence: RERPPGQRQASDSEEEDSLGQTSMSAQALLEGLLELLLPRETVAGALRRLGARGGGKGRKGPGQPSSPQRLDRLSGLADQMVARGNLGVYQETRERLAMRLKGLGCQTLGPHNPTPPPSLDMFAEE
The test can be described thus: yeast two-hybrid.
Source text: as §1

Test [5] addresses T4, CD2BP2129-287 (human, UniProt O95400 129-287).
T4 construct: Yeast two-hybrid prey; vector fusion part not described
T4 sequence: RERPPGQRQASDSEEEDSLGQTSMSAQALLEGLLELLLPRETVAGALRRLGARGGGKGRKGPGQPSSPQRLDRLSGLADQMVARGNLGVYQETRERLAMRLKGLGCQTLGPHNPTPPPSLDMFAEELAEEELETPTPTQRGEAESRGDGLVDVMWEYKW
As to the kind of experiment: yeast two-hybrid.
Source text: as §1

Test [6] has as its target T5, CD2BP2225-341 (yeast two-hybrid clone) (human, UniProt O95400 225-341).
T5 construct: Yeast two-hybrid prey in pJG4-5; vector fusion part not described
T5 sequence: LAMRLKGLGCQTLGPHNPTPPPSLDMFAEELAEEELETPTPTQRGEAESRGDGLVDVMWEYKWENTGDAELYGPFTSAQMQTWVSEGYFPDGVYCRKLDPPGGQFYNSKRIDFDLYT
The test can be described thus: yeast two-hybrid.
Source text: as §1

Substitutions are numbered along the chain they refer to.

For B1, the binding result in test [1] was “no binding”. With B2, the binding result in test [1] is “no binding”. On to B3, for which, in test [1], the binding result is “binds”. Take B4: the binding result in test [1] is “no binding”. Turning to B5, in test [1], the binding result is given as “no binding”. On the same count and under the same terms, as for B6, the entry is “no binding”; as for B7, “no binding”. As for B8, the binding result in test [2] is “no binding”. B9: in test [3], the binding result is given as “no binding”. Take B10: the binding result is on record as “no binding” in test [4], “no binding” in test [5] and “binds” in test [6].

(Values after patent US20020127657A1 (Dana-Farber, published 2002).)
